In publication PMC8528956 (Frontiers in Immunology, 2021):

B1: HC45 IgG (humanized constant domains), directed to the vestigial esterase domain (antibody, V domains shown)
VH: QVQLQQPGAELVRPGASVKLSCKASGYTLTTYWMNWFKQRPDQGLEWIGRIDPYDSETHYNQKFKDKAILTVDRSSSTAYMQLSSLTSEDSAVYYCTRFLQITTIIYGMDYWGQGTSVTVSS
VL: DVVMTQTPLSLPVSLGDQASISCRSSQTLVHSNGNTYLHWYLQKPGQSPKLLIYKVSNRFSGVPDRFSGSGSGTDFTLKISRVEAEDLGVYFCSQNTHVPYTFGGGTKLEIK
notes: source: 293F suspension cells, transient, purified from supernatants (Protein G); copies: 2 + 2
B2: HC19 IgG (humanized constant domains), RBS-directed (antibody, V domains shown)
VH: QVQLKESGPGLVAPSQSLSITCTVSGFLLISNGVHWVRQPPGKGLEWLGVIWAGGNTNYNSALMSRVSISKDNSKSQVFLKMKSLQTDDTAMYYCARDFYDYDVFYYAMDYWGQGTSVTVSS
VL: QAVVTQESALTTSPGETVTLTCRSSTGAVTTSNYANWVQEKPDHLFTGLIGGTNNRAPGVPARFSGSLIGDKAALTITGAQTEDEAIYFCALWYSNHWVFGGGTKLTVL
notes: as for B1
B3: FI6 IgG, stem-directed (antibody, V domains shown)
VH: QVQLVESGGGVVQPGRSLRLSCAASGFTFSTYAMHWVRQAPGKGLEWVAVISYDANYKYYADSVKGRFTISRDNSKNTLYLQMNSLRAEDTAVYYCAKDSQLRSLLYFEWLSQGYFDYWGQGTLVTVSS
VL: not shown
notes: as for B1
B4: 8H10 IgG (humanized constant domains), directed to the HA trimer interface (antibody, V domains shown)
VH: EVQLQESGEGLVKPGGSLKLSCAASGFTFSNYDMSWVRQTPEKRLEWVAYISSGGDYIYYADTVKGRFTISRDNARNTLYLQMSSLKSEDTAMYYCTRNYYYGSLPVWFAYWGQGTLVTVSG
VL: QAVVTQESALTTSPGETVTLTCRSSTGAVTTSNYANWVQEKPDHLFTGLIGGTNNRAPGVPARFSGSLIGDKAALTITGAQTEDEAIYFCALWYSNHSWVFGGGTKLTVL
notes: as for B1

These binders were tested against wild-type H3 A/Hong Kong/1/1968 hemagglutinin, recombinant full-length soluble ectodomain (Influenza A virus A/Hong Kong/1/1968 …, UniProt Q91MA7) (assay: ELISA). Settings: both partners purified.

Binder	binding result
B1	binds
B2	binds
B3	binds
B4	binds
